The record followed here is patent US5917018.

The target in the experiment is natural class I heavy chain molecules. Description: binding to class I heavy chain, method not given.

recombinant murine β2-microglobulin showed an affinity against that of human β2-microglobulin of 5 times lower.
